Here are results for eight sequences from a protein production outcome set (Wang et al. 2014).

A short description of the series: label from the status in PepcDB records.
In the case of “MTETNHDQAEYWGKSASGMKWLTFEEQIAASFAPVVDLLLERAALKPGQRVLDIGCGLGDVTLAAAQAVGPGGHVLGVDISAPFLERAGLRASGMGNVGFALADAQSEPFAPAERDAVLSRFGMMFFSDTVAAFANIARALKPGGRMTFAAWGPLAGNPWFYLPHRAATDRLGQMPKVDRNAPGPLAFHDIDRVTGLMAEAGLADIEAQAVDLNLTPPGGLEGAAALCTRLGPAARVLAHFNGSEADEAAIRDAVSAALEPYVEGGEVLMPATINLFQARRAGTA”, the protein production entry is listed as “failed”.

Consider “MTETYNKEQQEAMKKMMSFQMLYMLIMLGSLFIVITPSSRDAVGNLLNVVLIPTIGFGYRYPLLSIILTGVIIGVILSIPRYFFTDWVKMGKMQNTMKAFNEAIRAAYRERDMKKINKLNSMRMQMSMDQYQLSMNTMKPLLVISVLTILFYAWLFVFVGKIPYNYIAFPWDFNINISTAHFWIMPYWIFMYFLTEIVVSYFITMIMKYIDFTLRLRRISRETSS”, for which the protein production entry was “failed”.

Turning to “MTEVRPGAVASASLWERDAEIAALVEAVDALRADSPSSGSGSLLVFSGEAGIGKTALLGETRRIAESRGCTVWSARGGETVTSVPFNVVRQLLQPALVALMPDEAREYLGDWYDIAGPALGITEPGDRQADPQGVCDGLVAAVRRLARREWPLVLLIDDAHWADQETLHWLAAFAERLHDLSVLVVVARRPGEATEESTRHLDVIAAAAGPVATLSALTPEATAGLTRATVGVHADAPFCREVWAVTGGNPYETVELLAKVQDSELEPSESSAAELRALNRSARGRGLVARLEGLGIDATRFAWAAAILGTGISLDLAAQLAGMQREEALHCADLLGAARILTEPAPVNGRQPDGDLEFVHPLIASAVYNSIPDALRTAMHGVAAQVVTDSGLGAAAASRHLLEVHPDDDAELVDQMREAAREHLAVGAPDAARRCLERALLEPPLSDVHARVLYELGCATLLTSPATTIDYLQAALAMPGLDGDVRVDAVFRLSQALLHNNQVEEAVRTVDAEAARLEPGPARMRLQAVHYMWECVHAGEDISPTSVRALAELAKKCTGKDNSERALLILRGFDAMTRGENAEEVAELCDRALVNGRLAPGLGWTDTEWGIELLMMLASAYAYADRLDRAEALYNEALRAYEGAGWSGGHLALAHSYVGLGHRRRGRLTEAEKYLRESLRIAERVGRGLPLYWSATCGLVDTLLARGHVEEAAEIAERYGFGPPYPTTIVLPDTRSVRGRLLLALGRTEEGVNELEAAEKAATARGHHNTVLAPWALDLARALAVDDPRRAAELAATARRQAERFGTDTAIGEALRCAAALETGQRAASLYKQAVTYLEASPCSYEHAAARVEYGIATRSATELTRGLTLARSCGADGLVAQAQEALDNGPGLR”, the protein production result is reported as “failed”.

With “MTEVSFFLSDNNWYFVVVINNKDFCMKCHRLNEVMELLHPVWEENSDLNLVQLLQKLADEAGFKGQLSDLTDDILIYHLKMRGSAPTEVIPGLKKDYEEDFKTAILRARGVIKD”, the protein production result is recorded as “failed”.

On to “MTFALGQRWISDTESDLGLGTVVAMDARTVTLMFAASEENRVYARNDAPVTRVTFNVGDVIDCQEGWSLKVEEVLEDEGLYTYFGTREDTQETAVVLREIFLSNQIRFNKPQDKLYAGQIDRMDNFVLRY”, for which the protein production result is listed as “failed”.

For the sequence “MTFANTASINHYWRTHPALFTAMLLVVVLITSYFIDVFSGSAIAVLLILQLAVVVVALQCSANYAYFVAVFGAVSFNFLFTAPRYSLQMLNVEDIVNLTVFLLAALTSSKLAKHYRRQQDALEQAQLRNSILLSVSHDLRTPLATIIGTLTTLKEYQPKLSPAQTEELIDSAAAESHRLHQYIENLLQANKLQHGALKFSLDEANIREVLQRTIARFQTEQPRIQIQSEPELPSLMICSSLIEQAIFNVLDNALHYSPATQPVTVSLYRHQHMLRIDIQDQGKGIAPSQTGAIFELFYRQHPTTDGGAGLGLPVAKGIITAHNGTISAEKVAHGSLIRIALPITKESA”, the protein production result is listed as “failed”.

Regarding “MTFCYVNAYQGGYILYNKGTKSKEVAKMSTKKVYSFLSQAFIFSAIMLISNIIATHLPIPMPSSVIGLVILFSLLCLKVIKLEQVESLGTALTGIIGFLFVPSGISVINSLGVMGQYFVQILTVIVVATVILLAVTGLFAQFILGKDEKETEDTKELKVVNKGRKHGKVA”, the protein production entry is listed as “failed”.

As for “MTFGEKLLNAASTRGRLCVGIDPHESLLTSWGLPVNVDGLAEFSRACVEAFADTVALVKPQVAFYERFGSAGFAILEETIQTLRERGCLVVSDAKRGDIGSTMAGYASAWLDPASPLSSDAVTVSPYLGFHSLDPVFELAEQHGRGVFVLAATSNPEARELQDQQNADGVSISQQIVDQAAALNAPYMAQGKAGNIGVVIGATLSKPPRLSTLGGAILMPGVGAQGGTASDVDEIAGDMAHLAFPNVSRSILATGPDIAEMKNSVAKNAADFPGFPRS”, the protein production result is given as “failed”.
